This is an account of results in patent publication US20080260858A1, “Universal Procoagulant” (The Board of Trustees of the University of Illnois, priority 2005, published 2008).

For orientation: Kd means the concentration at which binding is half-saturated. For orientation: Km means the substrate concentration at which the rate is half of its maximum.

One series deals with T1, VIIa (Homo sapiens, UniProt P08709).
T1 construct: VIIa or factor VIIa means coagulation factor VIIa (active enzyme); purchased American Diagnostica
T1 sequence (P08709 61-212): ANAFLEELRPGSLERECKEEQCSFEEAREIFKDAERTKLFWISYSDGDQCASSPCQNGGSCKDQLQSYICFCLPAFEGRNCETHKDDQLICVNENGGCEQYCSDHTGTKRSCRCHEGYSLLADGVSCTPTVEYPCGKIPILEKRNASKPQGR
T1 sequence (P08709 213-466): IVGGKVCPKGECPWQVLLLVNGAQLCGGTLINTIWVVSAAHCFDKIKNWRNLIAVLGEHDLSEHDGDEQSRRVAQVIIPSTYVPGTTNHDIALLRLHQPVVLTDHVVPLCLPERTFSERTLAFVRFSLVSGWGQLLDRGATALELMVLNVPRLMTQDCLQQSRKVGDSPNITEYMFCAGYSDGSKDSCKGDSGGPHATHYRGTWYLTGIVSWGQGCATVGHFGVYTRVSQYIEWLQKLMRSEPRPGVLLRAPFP
Briefly: Kd for VIIa binding to TF (X activation rate as readout). The following applies: purified proteins; membTF in PCPS liposomes; sTF-5AA-(His)6 plus NiPCPS liposomes; read-out: VIIa binding Kd. The method, then: When VIIa binds to TF, its rate of X activation increases dramatically, so this can be used as a convenient readout for TF:VIIa complex formation. […] Therefore, when the isolated TF ectodomain was attached to the membrane surface via interaction with metal-chelating lipids, its VIIa binding ability was indistinguishable from membTF that spanned the lipid bilayer.
Measurement of the Kd for VIIa binding to TF—The binding affinity of VIIa for various forms of TF was measured using the TF-dependent increase in the rate of X activation as the readout for TF:VIIa complex formation. Activation of X by the TF:VIIa complex was measured by adapting the continuous chromogenic assay of Fiore et al.. Reaction mixtures containing Vila and either rTF/PCPS or sTF+SUVs were prepared in HBSAC. Reactions were initiated by adding a mixture of X and the chromogenic substrate, S-2222, in a flat bottom, 96-well plate. Change in A405 was monitored at ambient temperature in a VERSAmax microplate reader (Molecular Devices), sampling every 15 sec for 20 min. Initial rates of X activation were determined by fitting a second-order polynomial to the A405 data as described. The quadratic ligand binding equation was fit to the rate data as described to derive apparent Kd values for the binding of VIIa to TF. For experiments using relipidated rTF, typical reaction mixtures containing 0.25 μM VIIa and 20 nM X in HBSAC were incubated with increasing concentrations of rTF/PCPS.

In another series the target is T2, X activation by VIIa (Homo sapiens, UniProt P08709).
T2 construct: VIIa or factor VIIa means coagulation factor VIIa (active enzyme); purchased American Diagnostica
Nature of the series: Factor X activation using liposomes. In kind it is biochemical. The following applies: 500 pM VIIa, 4 pM TF, 50 μM total lipid; liposomes. As for the experimental part:
A stringent test of TF:VIIa function is its ability to support the activation of its natural protein substrate, X. This requires that TF be incorporated into a suitable phospholipid membrane (i.e., one containing negatively charged phospholipids). […] The ability of various forms of TF to support the activation of X was compared under equivalent concentrations of enzyme (500 pM VIIa), cofactor (4 pM TF) and liposomes (50 μM total lipid).
Factor X activation using liposomes. […] At varying times, 20 μl aliquots were removed into a 96-well plate containing 100 μl Stop Buffer 1 (40 mM Mes-NaOH pH 5.8, 12 mM EDTA, 50 mM NaCl, 0.25% Triton X-100, 0.1% NaN3, 0.012% Antifoam C) at 4° C. After warming the stopped reactions to room temperature, Xa was detected by adding 60 μl of 1.5 mM Spectrozyme Xa in HBSAC plus 0.6 M Tricine-NaOH, pH 8.4 and quantifying change in A405. Amounts of Xa generated were determined by comparison to a standard curve with purified Xa.

For a further series, the target named is T3, VII (Homo sapiens, UniProt P08709).
T3 construct: Purified plasma-derived VII, X and factor Xa (Xa) were from Enzyme Research Laboratories; purchased Enzyme Research Laboratories; host or cells: plasma
T3 sequence (P08709 61-466, one chain of several): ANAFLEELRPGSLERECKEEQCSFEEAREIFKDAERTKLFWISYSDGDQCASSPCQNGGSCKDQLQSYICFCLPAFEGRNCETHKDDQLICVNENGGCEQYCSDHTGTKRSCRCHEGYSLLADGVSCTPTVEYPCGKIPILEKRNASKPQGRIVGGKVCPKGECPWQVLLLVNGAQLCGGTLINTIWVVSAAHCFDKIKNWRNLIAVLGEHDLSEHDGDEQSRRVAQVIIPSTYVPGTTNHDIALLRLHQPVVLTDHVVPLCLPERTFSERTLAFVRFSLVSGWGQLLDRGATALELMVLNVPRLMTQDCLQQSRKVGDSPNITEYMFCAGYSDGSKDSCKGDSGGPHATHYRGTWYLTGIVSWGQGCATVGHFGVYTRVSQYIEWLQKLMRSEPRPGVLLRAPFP
Nature of the series: Factor VII autoactivation. The series is classed as biochemical. The conditions noted are these: 15 nM VII and TF; 37° C.; liposomes. As for the experimental part: An additional function of TF is to promote the autoactivation of VII in a reaction that is dependent on TF surface density.
Factor VII autoactivation. Rates of VII autoactivation were measured essentially as described. Equimolar concentrations of VII and TF (15 nM each) were incubated in HBSAC at 37° C. […] A 20 μl aliquot of 5 mM Chromozym t-PA substrate was added and the change in A405 was monitored at ambient temperature. Two-dimensional second-order rate constants (k2D) were determined as described.

B1: membTF: recombinant membrane-bound tissue factor (protein, UniProt P13726 1-295, looked up)
chain: METPAWPRVPRPETAVARTLLLGWVFAQVAGASGTTNTVAAYNLTWKSTNFKTILEWEPKPVNQVYTVQISTKSGDWKSKCFYTTDTECDLTDEIVKDVKQTYLARVFSYPAGNVESTGSAGEPLYENSPEFTPYLETNLGQPTIQSFEQVGTKVNVTVEDERTLVRRNNTFLSLRDVFGKDLIYTLYYWKSSSSGKKTAKTNTNEFLIDVDKGENYCFSVQAVIPSRTVNRKSTDSPVECMGQEKGEFREIFYIIGAVVFVVIILVIILAISLHKCRKAGVGQSWKENSPLNVS
modifications: full-length
In the case of B1, the Kd with VIIa was 0.01 nM. In the series with X activation by VIIa, the Km was determined as 0.059 ± 0.00088 µM and the X activation kcat stood at 3.5 ± 0.38 s⁻¹. In the series with VII, the “VII autoactivation k2D” value is reported as 3.4 (±0.15) × 10^7 m^2 mol^−1 s^−1.
